Source: US20260242478A1 (published 2026)
Where no end group is shown, it is not given here.

B1: Phage-2583 (peptide)
peptide: EVMWCRPAWMCDGI
notes: Clonal phage displaying the peptide, tested as crude supernatant; also called peptide-180 library clone; not shown: fused to the pIII filament protein of the bacteriophage
B2: Phage-2604 (peptide)
peptide: VWQLCIPPWMCQFE
modifications: cysteine pairing not given here; also: displayed on phage as pIII fusion, linker and pIII sequence not given here
notes: Clonal phage of the peptide-180 library; not shown: fused to pIII of the bacteriophage
B3: Phage-2606 (peptide)
peptide: VDKWCIPAWMCDRS
modifications: cysteine pairing not given here; also: displayed on phage as pIII fusion, linker and pIII sequence not given here
notes: as for B2
B4: Phage-2609 (peptide)
peptide: MVKWCTPAWMCTLE
modifications: cysteine pairing not given here; also: displayed on phage as pIII fusion, linker and pIII sequence not given here
notes: as for B2
B5: Phage-2612 (peptide)
peptide: FANWCTPSWMCVGM
modifications: cysteine pairing not given here; also: displayed on phage pIII, linker not given here
notes: as for B2
B6: Phage-2578 (peptide)
peptide: LQEWCIPPWMCIKS
notes: as for B1
B7: Phage-2574 (peptide)
peptide: TFKWCTPAWMCAGF
modifications: cysteine pairing not given here; also: fused to phage pIII, linker and fusion site not given here
notes: as for B1
B8: Phage-2571 (peptide)
peptide: IAKWCIPSWMCAGI
modifications: cysteine pairing not given here; also: fused to phage pIII, linker and fusion site not given here
B9: Phage-2614 (peptide)
peptide: HVNWCTPKWMCSGF
modifications: cysteine pairing not given here; also: displayed on phage pIII, linker not given here
notes: as for B2
B10: Phage-2611 (peptide)
peptide: VEKWCIPEWMCETS
modifications: cysteine pairing not given here; also: displayed on phage pIII, linker not given here
notes: as for B2
B11: Phage-2613 (peptide)
peptide: MYNLCTPEWMCAGF
modifications: cysteine pairing not given here; also: displayed on phage pIII, linker not given here
notes: as for B2
B12: Phage-2576 (peptide)
peptide: QEKMCIPAWMCSEY
notes: as for B1
B13: Phage-2587 (peptide)
peptide: VGKWCVPMWMCATD
modifications: cysteine pairing not given here; also: fused to phage pIII, linker and fusion site not given here
notes: as for B1
B14: Phage-2608 (peptide)
peptide: LHKLCIPEWMCEYY
modifications: cysteine pairing not given here; also: displayed on phage as pIII fusion, linker and pIII sequence not given here
notes: as for B2
B15: Phage-2575 (peptide)
peptide: EFKWCTPEWMCAMA
modifications: cysteine pairing not given here; also: fused to phage pIII, linker and fusion site not given here
notes: as for B1
B16: Phage-2582 (peptide)
peptide: EGKWCIPEWMCISV
notes: as for B1
B17: Phage-2581 (peptide)
peptide: SEKWCIPEWMCMYA
notes: as for B1
B18: Phage-2586 (peptide)
peptide: ETQMCVPQWMCWGI
notes: as for B1
B19: Phage-2573 (peptide)
peptide: VDTWCTPPWMCWGL
modifications: cysteine pairing not given here; also: fused to phage pIII, linker and fusion site not given here
notes: also called peptide-180 library clone; not shown: fused to the pIII filament protein of the bacteriophage
B20: Phage-2579 (peptide)
peptide: GPKWCTPPWMCWEF
notes: as for B1
B21: Phage-2585 (peptide)
peptide: DLKRCIPDWMCAVA
modifications: cysteine pairing not given here; also: fused to phage pIII, linker and fusion site not given here
notes: as for B1
B22: Phage-2616 (peptide)
peptide: QDNWCIPRWMCEAM
modifications: cysteine pairing not given here; also: displayed on phage pIII, linker not given here
notes: as for B2
B23: Phage-2610 (peptide)
peptide: SSMLCIPPWMCEQS
modifications: cysteine pairing not given here; also: displayed on phage as pIII fusion, linker and pIII sequence not given here
notes: as for B2
B24: Phage-2605 (peptide)
peptide: VMKWCTPSWMCEHI
modifications: cysteine pairing not given here; also: displayed on phage as pIII fusion, linker and pIII sequence not given here
notes: as for B2
B25: Phage-2584 (peptide)
peptide: VVKWCKPAWMCEQA
notes: as for B1
B26: Phage-2615 (peptide)
peptide: HEKWCIPPWMCEAN
modifications: cysteine pairing not given here; also: fused to phage pIII (clonal phage display)
notes: as for B2
B27: Phage-2580 (peptide)
peptide: GVKWCTPAWMCEWT
notes: as for B1
B28: Phage-2607 (peptide)
peptide: QMKLCIPQWMCVDH
modifications: cysteine pairing not given here; also: displayed on phage as pIII fusion, linker and pIII sequence not given here
notes: as for B2
B29: Phage-2577 (peptide)
peptide: LTNWCTPSWMCYGL
notes: as for B1

Key:
[1] = molecular target: T1, PSMA Fab (biotinylated (site not stated)); experiment: clonal phage ELISA on captured PSMA Fab pre-incubated with PSMA antigen (competitor: PSMA), anti-M13-HRP detection
T1 construct: also called Anti-PSMA Fab; 006 PSMA Fab

[2] = molecular target: T1, PSMA Fab; experiment: clonal phage ELISA on biotinylated PSMA Fab captured on neutravidin plates, blocking buffer alone, anti-M13-HRP detection
Description: (§1) Clonal phage were harvested as crude supernatants and screened via standard ELISAs. […] Prior to the addition of clonal phage. wells were incubated with blocking buffer and PSMA antigen or blocking buffer alone. Without washing or aspirating, clonal phage supernatants were then added to the wells and incubated for a short time. Wells were then washed followed by detection of bound phage using a horse radish conjugated anti-M13 antibody.

[3] = molecular target: T2, PSMA Fab (biotinylated (site not stated)); experiment: clonal phage ELISA on biotinylated PSMA Fab captured on neutravidin plates, anti-M13 HRP detection;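 note: crude clonal phage supernatants tested, before phage were added, wells were pretreated with PSMA antigen in blocking buffer or with blocking buffer only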
T2 construct: also called Anti-PSMA Fab; 006 PSMA Fab

[4] = molecular target: T2, PSMA Fab; experiment: clonal phage ELISA on captured PSMA Fab, wells pre-incubated with PSMA antigen as competitor; column meaning inferred
Description: as §1

[5] = molecular target: T3, PSMA Fab (SEQ ID NOs: 19, 20); experiment: phage ELISA; biotinylated PSMA Fab on neutravidin plate, anti-M13 HRP; no PSMA antigen
T3 construct: Biotinylated and captured on neutravidin coated plates in the phage ELISA; also called Anti-PSMA Fab; 006 PSMA Fab
Description: as §1

[6] = molecular target: T3, PSMA Fab (SEQ ID NOs: 19, 20); experiment: phage ELISA; biotinylated PSMA Fab on neutravidin plate, anti-M13 HRP; competitor PSMA antigen pre-incubated
Description: as §1

Row | Binder | phage binding ELISA signal in presence of PSMA [1] | phage binding ELISA signal [2] | Phage binding ELISA signal, Anti-PSMA Fab [3] | Phage binding ELISA signal, Anti-PSMA Fab in presence of PSMA antigen [4] | other results
1 | B1 | 0.0623 | 1.07 |  |  | 
2 | B2 |  |  | 1.03 | 0.113 | 
3 | B3 |  |  | 1.03 | 0.0604 | 
4 | B4 |  |  | 1.02 | 0.0801 | 
5 | B5 |  |  | 1.02 | 0.0676 | 
6 | EPKWCTPPWMCENF [Phage-2567] |  |  |  |  | phage binding ELISA signal [5]: 1.11; phage binding ELISA signal [6]: 0.0576
7 | B6 | 0.0797 | 1.09 |  |  | 
8 | B7 | 0.0801 | 1.09 |  |  | 
9 | B8 |  |  |  |  | phage binding ELISA signal [5]: 1.1; phage binding ELISA signal [6]: 0.139
10 | QYNWCVPAWMCEIS [Phage-2572] |  |  |  |  | phage binding ELISA signal [5]: 1.1; phage binding ELISA signal [6]: 0.0848
11 | B9 |  |  | 1.02 | 0.0894 | 
12 | B10 |  |  | 1.02 | 0.0624 | 
13 | B11 |  |  | 1.02 | 0.0554 | 
14 | B12 | 0.0615 | 1.09 |  |  | 
15 | B13 | 0.0735 | 1.06 |  |  | 
16 | B14 |  |  | 1.03 | 0.0595 | 
17 | B15 | 0.0845 | 1.09 |  |  | 

Row | Binder | phage binding ELISA signal in presence of PSMA [1] | phage binding ELISA signal [2] | Phage binding ELISA signal, Anti-PSMA Fab [3] | Phage binding ELISA signal, Anti-PSMA Fab in presence of PSMA antigen [4] | other results
18 | B16 | 0.0637 | 1.08 |  |  | 
19 | B17 | 0.0532 | 1.08 |  |  | 
20 | B18 | 0.0571 | 1.07 |  |  | 
21 | B19 | 0.0695 | 1.09 |  |  | 
22 | B20 | 0.331 | 1.08 |  |  | 
23 | AIHWCTPPWMCEPQ [Phage-2569] |  |  |  |  | phage binding ELISA signal [5]: 1.1; phage binding ELISA signal [6]: 0.0777
24 | B21 | 0.0617 | 1.07 |  |  | 
25 | EGPWCIPEWMCQNS [Phage-2570] |  |  |  |  | phage binding ELISA signal [5]: 1.1; phage binding ELISA signal [6]: 0.0766
26 | YDVLCKPDWMCNWN [Phage-2568] |  |  |  |  | phage binding ELISA signal [5]: 1.11; phage binding ELISA signal [6]: 0.0861
27 | B22 |  |  | 1.01 | 0.0626 | 
28 | B23 |  |  | 1.02 | 0.0682 | 
29 | B24 |  |  | 1.03 | 0.0582 | 
30 | B25 | 0.0788 | 1.07 |  |  | 
31 | B26 |  |  | 1.01 | 0.0603 | 
32 | B27 | 0.0707 | 1.08 |  |  | 
33 | B28 |  |  | 1.03 | 0.0553 | 
34 | B29 | 0.0817 | 1.09 |  |  | 
